Legend:
[1] = target: CdaA_(103–285), truncated S. mitis CdaA-type diadenylate cyclase (SM12261_1351) lacking the transmembrane helices (Streptococcus mitis CCUG 31611); assay: SEC; Superose 6 Increase 10/300 GL on an ÄKTA Pure 25; SEC buffer 1x PBS pH 7.4 with 10% glycerol; apparent molecular weight from vE/v0 against gel filtration markers (12,000-200,000 Da)
[2] = tested on: [H][C@@]1(O)[C@]2([H])OP(=O)(O)OC[C@@]3([H])O[C@@]([H])(n4cnc5c(N)ncnc54)[C@]([H])(O)[C@]3([H])OP(=O)(O)OC[C@@]2([H])O[C@@]1([H])n1cnc2c(N)ncnc21; assay: purified protein; conditions: 1 mM MnCl2, 50 mM Tris-HCl pH 7.5, 37 °C, 2.5 μM enzyme, product pApA
From the text: pApA formation, reversed-phase HPLC, Michaelis-Menten fit on Pde1_53–657

[3] = tested on: Nc1ncnc2c1ncn2[C@@H]1O[C@H](COP(=O)(O)O[C@H]2[C@@H](O)[C@H](n3cnc4c(N)ncnc43)O[C@@H]2COP(=O)(O)O)[C@@H](O)[C@H]1O; assay: purified protein; conditions: 1 mM MnCl2, 50 mM Tris-HCl pH 7.5, 37 °C, 5 μM enzyme, product AMP
From the text: AMP formation, reversed-phase HPLC, Michaelis-Menten fit on Pde1_53–657

[4] = target: Pde2, full-length S. mitis DhhP-type phosphodiesterase (SM12261_1122) (Streptococcus mitis CCUG 31611); assay: SEC; Superose 6 Increase 10/300 GL on an ÄKTA Pure 25; SEC buffer 1x PBS pH 7.4 with 10% glycerol; apparent molecular weight from vE/v0 against gel filtration markers (12,000-200,000 Da)
[5] = substrate: Nc1ncnc2c1ncn2[C@@H]1O[C@H](COP(=O)(O)O[C@H]2[C@@H](O)[C@H](n3cnc4c(N)ncnc43)O[C@@H]2COP(=O)(O)O)[C@@H](O)[C@H]1O; assay: AMP formation, reversed-phase HPLC, Michaelis-Menten fit; assay type: biochemical, Streptococcus mitis; conditions: 1 mM MnCl2, 50 mM Tris-HCl pH 8.5, 37 °C, 0.05 μM enzyme, product AMP
From the text: (§1) AMP formation, reversed-phase HPLC, Michaelis-Menten fit on Pde2

[6] = substrate: [H][C@@]1(O)[C@]2([H])OP(=O)(O)OC[C@@]3([H])O[C@@]([H])(n4cnc5c(N)ncnc54)[C@]([H])(O)[C@]3([H])OP(=O)(O)OC[C@@]2([H])O[C@@]1([H])n1cnc2c(N)ncnc21; assay: as above; assay type: biochemical, Streptococcus mitis; conditions: 1 mM MnCl2, 50 mM Tris-HCl pH 8.5, 37 °C, 10 μM enzyme, product AMP
From the text: as §1

For “CdaA_(103–285), truncated S. mitis CdaA-type diadenylate cyclase (SM12261_1351) lacking the transmembrane helices (domain or fragment)”, the stoichiometry N [1] was 2.

“Pde1_53–657 (Streptococcus mitis NCTC 12261)” was tested, and the Km [2] was 241.3 ± 11.6 µM, the Vmax [2] was 621 µM/min and the kcat [2] was 4.14 ± 1.99 s⁻¹. It also gave a kcat/Km [2] of 17000 M⁻¹ s⁻¹, a Km [3] of 152.4 ± 03.6 µM and a Vmax [3] of 748 µM/min. It also gave a kcat [3] of 2.49 ± 0.61 s⁻¹ and a kcat/Km [3] of 16400 M⁻¹ s⁻¹.

Molecule “Pde2, full-length S. mitis DhhP-type phosphodiesterase (SM12261_1122) (enzyme)” has a stoichiometry N [4] of 2.

B1: Pde2 (Streptococcus mitis NCTC 12261) (protein)
chain: MDICHQILEKIKEYDTIIIHRHMKPDPDALGSQVGLKALLKHHFPEKTIKAVGFDEPTLTWMAEMDLVEDSAYQGALVIVCDTANTARIDDKRYSQGDFLIKIDHHPNDDVYGDLSWVDTSSSSASEMITLFAQTTQLALSDRAAELLFAGIIGDTGRFLYPSTTERTLRLAAYLREHNFDFAALTRKMDTMSYKIAKLQGYIYDHLEVDENGAARVILSQEILKRFNVTDAETAAIVGAPGRIDSVSLWGIFVEQADGHYRVRLRSKIHPINEIAKEHDGGGHPLASGANSYSLEENEIIYQKLKNLLKN
B1 gave a Km [5] of 877 ± 312 µM, a Vmax [5] of 10600 µM/min and a kcat [5] of 3530 ± 623 s⁻¹. The kcat/Km [5] was 4.02e+06 M⁻¹ s⁻¹, the Km [6] was 148.5 ± 34.8 µM and the Vmax [6] was 46.8 µM/min. It also gave a kcat [6] of 0.078 ± 0.005 s⁻¹ and a kcat/Km [6] of 525 M⁻¹ s⁻¹.

From paper PMC7570391, “Cyclic Di-adenosine Monophosphate Regulates Metabolism and Growth in the Oral Commensal Streptococcus mitis” (Microorganisms, 2020)
